Measured values taken from a protein production outcome set (Wang et al. 2014).

Assay: label from the status in PepcDB records
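Note: failed if final PepcDB status was selected cloned or expressed and not failed if soluble or beyond.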

Sequence | protein production
MGTAWNYPDLGSKNPMSGMVQSETAVIGGAGNVGMGIVAALLDAGMPTVVIGRDAAKLDALRAQHGHSPLLDIVQGSVADDASARRLATELAQRHRPLGAVIASLGSPPKAGRLLDRPVAVLRRRLERDVLPHLAAARHLLPLLAEADGGGRYLLLGSPCALRAWSAHGDRSVAASATRMLAQVLHEEAKPLGVRVQLLSVEQPVCTPGRAKDACPEWIRAVDVGRAAVSLIAGPGQPGQAIVTVSRRPHAAPSASRLAGLHVSIPTREISP | failed
MLIYGLARLLLFVVLTLIIHSLALLISAPVPLVMSAMLALIVAFPLSMLVFSKLRMNATQAVSQWDAQRKAHKEWVRSELADR | failed
MTTNRYMKGIMWAMLASTLWGVSGTVMQFVSQNQAIPADWFLSVRTLSAGIILLAIGFVQQGTKIFKVFRSWASVGQLVAYATVGLMANMYTFYISIERGTAAAATILQYLSPLFIVLGTLLFKRELPLRTDLIAFAVSLLGVFLAITKGNIHELAIPMDALVWGILSGVTAALYVVLPRKIVAENSPVVILGWGTLIAGILFNLYHPIWIGAPKITPTLVTSIGAIVLIGTIFAFLSLLHSLQYAPSAVVSIVDAVQPVVTFVLSIIFLGLQVTWVEILGSLLVIVAIYILQQYRSDPASD | failed
MTPTQNVPEDRIQIGQLRSAYGLNGWLWVYSNTEPMSNMFDYLPWFIETKAGWQTVDVKRWKPHGKGLVVSLKNVSDRNAAESLIGSTIWVAKSQLPKTDVDEYYWSDLKGLTVLGLDEEEQEVNLGQIHELFETGANDVMVVRATADSVDAEERMIPWHKDVVQRVDLEAGRIYVNWGVDYLEHHHHHH | not failed
MLQKDPCLDDILENSEKLENNSNKKNIDSIDTIKLSDIIEKMIEINSIVRIEKIFEEKIVSQNPVVNVVVNDGSARGLLSLWSEQISLLNELNEGDAILIENAHAPKKYKDRIHLALSKSGKISKIESDLPTIDELLKKSSAQRNDFSRKSISELKEGIGAELRGLIVAIHSKEPYFPVCDKCNKKMTLKKGYAVCKCGNKVDEEDENLKWLFLCTCTLDDGSGTIRVTLNNNTNYLDLEELKKIIIDDEEILDVLNNKLLGLDILTSGFTIYDEYLKDTAFRCNNWNKIDIMEEFNKKLKGLEHHHHHH | not failed
PEKLPYLVELSPDGSDSRDKPKLYRLQLSVTEVGTEKFDDNSIQLFGPGIQPHHCDLTNMDGVVTVTPRSMDAETYVDGQRISETTMLQSGMRLQFGTSHVFKFVDP | not failed
MVKVELVYIANSKNCLHYKMDLKQGATVEEALIESNIYSTCPETRELPVGVYGKRVSVDQVLKEGDRIEIYRPLILDPKEKRRKLAQFKK | failed
MATESSESEEEGKISGGNYKLIIDDDLREMGKNAAWSVSSYGLQPHLINIQFQKKVKLQLVVLYVDFKLDESYTPSKISIRAGDGFHNLKEIKSVELVKPTGWVCLSLSGTDPRETFCQESR | failed
MIKTEKNQTSKVTDEVDQLVQRSKKALAILKSYTQAQIDDLCEKVAVAALDNHMKLAKLAVEETGRGVVEDKAIKNIYASEYIWNSMRHDKTVGVIKEDDEEQLMEIAEPVGIVAGVTPVTNPTSTTVFKTLISLKGRNTIVFGFHPQAQKCSSAAADVMREAIKAAGGPADAVLYIEHPSIEATDALMHHTDVATILATGGPSMVTAAYSSGKPALGVGPGNGPTYVEKTADIKQAVNDIVLSKTFDNGMICASE | failed
MADATRIPDSVTLPELTLRGVLLGALITVIFTASNVFLGLKVGLTFSSAIPAAVISMSVLRMFRDANILENNMVQTQASAAGTLSAIIFILPALVMMGHWQGFPFWQTLAICGAGGMLGVMFTIPLRHIMVVQSDLPYPEGVAAAEILRVGSAEAPDTAPGRRGASGMGDILAGGGVAALVSLATGGLRVLGDSFSWWGQLGASVFRLPMGFSLALLGAGYLIGIVAGVAMLVGLLIAWLVAVPVLTATTPMPDGQSISAFANSLWASQVRFIGAGVIGVGAIWTLATLFMPMVRGVRTSFAAFGRSGEAAYGSAPRTERDLPSRWISLITLALVAVLVGVFAAFLQPAVLSPGARWGLVAYAVVFAFVFGFLVAAACGYMAGLIGSSTSPISGVGIVAIVLVSLLMLAIQRGDGLLATPQGLQMGIALAIFTTSAVVAVASISNDNLQDLKTGWLVGATPWRQQVALLIGCVVGAAVISPVLELLYNAYGFGDALPRPGMDPSQALAAPQATLMLAIAQGIFTHQLNWTMILIGMGVGVALIVIDQVLRRTCRVARLPVLAVGIGIYLPPSASAPIVVGAVLAWLLEGALRRRAAAAGQDYERYAEGPNRRGVLVASGLIVGESLVGVLLAAVIGATGDEAPLAVVGAGFGPTAEWLGFVVFAAVAVWIYRRVVRTRPEQA | failed
MQWQESLPWTPEARQKLKNIPYFARVQARQRIEQLARQADLDEVTVDLVEQARLEFGQ | failed
KPIPLAVIVVLGCFALGLGGIIGFVHKGEDYQAYQKLQWHTLAPEKIAPLVAQGYTVFVDITSDWCSICQTNKAEVTHREQVVNALMADDIILMQGNWSEADNTIAGYMQYEGIPGTPYNKIYGPRNPNGIVLPSKLTIEAVINGLAQAKAL | failed
MIVRRTIDKDELKELPKTVFPGRIYVIQSEAETEKAVAYLQSRPVIGIDSETRPSFTKGQSHKVALLQISSEECCFLFRLNMTGLTQPLVDLLENPAVIKVGLSLKDDFMMLHKRAPFTQQSCIELQDYVRQFGIQDKSLQKIYAILFKEKISKSQRLSNWEADVLSDGQKQYAATDAWACLNIYNLLQELKQTGDWEVSPLTATVSPAEEVISNKISD | failed
MKMVDELKGNLNSFLILLGIFSFLQFSFKQSFMFPSILPLNIPDSNLLLVIGNISFYFFFVFLLIVSMILSLTYKSLIPLTIILTISPFITLIPNYENSFLLYSLEIAILILGLASTIEGLIKSSLLSILLIPTLVLVNLGIYASILLNIFHNALFISYLTIYLISIAGYLAYVISWGKIKSLRNYIAISVGLLSMIPFIFFENIISHNRYLEILMNMILPSTLGITLYNPYHITLLVMALGLSTMGIVTSLIKGNVSSGVGYFLIITTVFLGIDGFSLLIYMLTPIIGFLVITSSEIESKRRLIDIISPTRNG | failed
MVYKNILVGLDGSSQADNAFKVACGLANALSADLHPIWIVNRDRGMDSSFGVNEDFYRDQYHQVQDKLVSYVEDAKKAGLKVTGEALVGNIKLVLANEYPKEHGIDLIVLGNTGLNTVEKLVVGSHTSYVIRNSACDVLVVK | failed
MQPTSITVASYNLRNANGGDSINGNGWGQRYPVIAQIVQYHDFDIFGTQECFIHQLKDMKEALPGYDYIGVGRDDGKEKGEHSAIFYRTDKFDVIEKGDFWLSETPDVPSKGWDAVLPRICSWGHFKCKDTGFEFLFFNLHMDHIGKKARVESAFLVQDKMKELGKGKELPAILTGDFNVDQTHQSYDAFVSKGVLCDSYEKAGFRYAINGTFNDFDPNSFTESRIDHIFVSPSFQVKRYGVLTDTYRSIVGKGEKKQANDCPEEIDIKTYQARTPSDHFPVKVELEFDQRQQKLEHHHHHH | not failed
MSEILVLNCGSSSVKFALINPHTSQSLVTGLAENIATKNCKVVFKAEHKIVKYLENGSYKDVFEMLKDFLVENKHLEKIVAIGHRVVHGGQYFSKSVLINADSLEKIKACIALAPLHNPAHIEGIRFCQQIFPELPQVAVFDTAFHQTMPSYIAEYAIPYELTHKHNIRKYGAHGTSHKYVSEQAAKILTQQKANVIVAHLGNGCSITAVVDGKSIDTSMGLTPLDGLVMGTRSGCIDPSIFAYISDNLGWSVTEITNMLNKQSGLLGICGHNDMREVSQLAAKGDSLAKLAIEIFSHRVAKFVASYMIYFNKLDALVFTGGIGENAANIRKNIISKLANLGFMIDHQKNSNSETFINSKNSHNIMVIATNEELMIAQETQNLI | not failed
MLSVRIPGPARQAWAIVEQRPWLARRPFIIHGPPWRLASQQEDDVFKLMSRSAVKMVERYLPDPYVFVVLLTLVAAGAAMIIEGQTPMAVVRWWGNGFWGLLTFAMQMLLVLVTGYMLASTPLVKRMLARLASLATSAGGAIILVSVVSLAASWINWGFGLVVGALFAKQIARQVRVDYRLLVASAYSGFIIWHGGLAGSIPLTIATEGHFSADKIGIIPTGDTIFAVFNLVIVVAMFILVPLVNRLMLPDEKESVYVDPARLEEASVPASDDDKRPAARLENSRLLAWLIAAGGLAYMFDYYVVRGAGLNLNVINFSFLILAILLHGTPRRLLTSLDEAIKGGAGIVIQFPFYAGIMAIMMDSGLAATLSEWFVSIASAATLPFWTFISAGIVNIFIPSGGGQWAVQSPIVISAAQALGADMPRVAMAVAWGDAWTNMLQPFWALPVLAIAGLKAKDIMGYCIIQLLVTGVIISVGLSFF | failed
MFRTSGTKTIVFHCHPRYTMIVCVMEEFCRKKVDGNENNSYLTVCNRKLDQERKEIVMNEKQRLEQTGQIQTASHPADRKSDLERLKAKTTKDYEKYFTSVFLPPNLKEAKKRGKEEVQYVKDFTIPDEFRGMGRGRKFYIRTYGCQMNEHDTEVMAGIFMALGYEPTDRPEDANVILLNTCAIRENAENKVFGELGYLKPLKTTNPDLLLGVCGCMSQEEAVVNKILKQYQYVDLIFGTHNIHRLPYILHEAYMSKEMVVEVWSKEGDVVENLPKVRKGNIKAWVNIMYGCDKFCTYCIVPYTRGKERSRRPEDIIQEVRQLAAQGYKEITLLGQNVNAYGKDFNDIQYGLGDLMDELRKIDIARIRFTTSHPRDFDDRLIEVLAKRGNLVEHIHLPVQSGSTEILKMMGRKYTREEYLELVRKIKAAIPDVALTTDIIVGFPNETDEQFEETLSLYREVEFDSAYTFIYSPREGTPAAKMNDNVPMEVKKERLQRLNALVQEIAAKKMKQYEGQVVEVLVEGESKTNPDVLAGYTRKNKLVHFVGPKSLIGQLVNVRITQAKTWTLTGELANEAIEVN | failed
MKKTWKVFLTLVTALVAVVLVACGQGTASKDNKEAELKKVDFILDWTPNTNHTGLYVAKEKGYFKEAGVDVDLKLPPEESSSDLVINGKAPFAVYFQDYMAKKLEKGAGITAVAAIVEHNTSGIISRKSDNVSSPKDLVGKKYGTWNDPTELAMLKTLVESQGGDFEKVEKVPNNDSNSITPIANGVFDTAWIYYGWDGILAKSQGVDANFMYLKDYVKEFDYYSPVIIANNDYLKDNKEEARKVIQAIKKGYQYAMEHPEEAADILIKNAPELKEKRDFVIESQKYLSKEYASDKEKWGQFDAARWNAFYKWDKENGILKEDLTDKGFTNEFVK | failed
MSQRLILFSRYPEPGRSKTRLIPALGPEGAADLQRQLTEWTVFTAHCWQARSPQTEVLIATSGGTSEAWQQWLGAVEVQPQAEGDLGDRLHQAFQDSWQVGCDRTVIIGSDCPQIEPHHLDEAFAVLQQADVVIGPASDGGYWLIGLSQPQPQLFQNIDWGSDRVLVQTLEAAQVADLQVAQLESLSDLDRPEDLNLWQPQPQLSVIITTLNEAANLPQTLALIGDAPVETLVVDGGSQDATVAIAQAWGAKVIHSPAGRGRQFNQGAAAAHGNILLFLHGDTRLPPRFWEHVLQTLQPPQVVAGAFQLQIDSPDWRLRWIERGVRWRSHWLQQPYGDQALFLSRDRWRAIGGFSTGPLLEDYRFVRQLRRQGTIAIASAAVMTSARRWQRRGVLQTTLLNQLILLAHHCGVSDQQLARWYR | failed
MIRNVLKLLALLADEIVIVALVIIFLRRVSARLAVIVGGALILFNLFLVKLLWGTLKKKAEVGAEALIGEKAVVVEDLNPVGLVKVKNELWTAECISGTARRGEKVRIVQVKGAKLLVEKDDNAGKFL | failed
MNFPTQTHAIDFDTAELQRLGFRNRPDAVLPPPSLPELVYQLGRQLQTSLEAERILTLFFQGVQRFLPLSGLVYRHIESDLHLRLGEMSSDSASFHLRHEGKCIGELEFQGAKPFDTRQLSDLESLLVCLVYPLLNALLYRIATQTALRDPLTSTGNRIAMDQGLAREIEISSRHKQPLSLLMLDIDHFKKVNDEYGHHTGDDVLKTVAQSLKAQLRNIDRVFRYGGEEFVVILSNTGATAAELIGERLRQAVRNLEFRELDPALTMTVSLGCSTLLPTETADSLLRRADNALYVAKREGRNRLAMAS | failed
